± gives the standard deviation of the averaged measurements.
What follows are sequences tested on ATP (assay: switch fluorescence ratio, 500 uM ATP over buffer (Cy3 cluster intensity, sum of 5 cycles each) (fold (ratio)); higher = stronger signal-on switching upon ATP binding; sequences stand for … in TCGTCGGCAGCGTCAGATGTGTATAAGAGACAGTTTTTTTTTTTTTTTTTTTTTTTTT…TC). Conditions: aptamer strand: ATP DNA aptamer (quencher-CACCTGGGGGAGTATTGCGGAGGAAGG + anchor), 100 nM annealed; ATP concentration: 500 uM.
Procedure, shortened: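 Per cluster, summed Cy3 intensity from the target cycles was divided by that from the buffer cycles to give the fluorescence ratio, then averaged per switch-domain sequence. Clusters outside 100-1000 RFU were excluded. The Cy3-labelled switching-strand clusters, on a modified Illumina MiSeq flow-cell, were annealed to 100 nM quencher-labelled ATP aptamer and imaged in selection buffer, then after 15 min with 500 uM ATP at 22 °C, for five cycles with NaOH stripping and re-annealing between them.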
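Further: ATP exposure 15 min at 22 °C before imaging.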

Row | Sequence | switch fluorescence ratio
1 | TACGGGGTCA | 0.971 ± 0.03
2 | GGATTATCGG | 0.976 ± 0.023
3 | ATATTGGTTT | 0.997 ± 0.011
4 | TTAGTAAGTT | 1.11 ± 0.12
5 | TCGGTTCGTG | 1.01 ± 0.054
6 | TTAAAGGGTG | 1.08 ± 0.048
7 | TTGGTTTTGT | 0.995 ± 0.024
8 | TTTCGAGTTA | 1.03 ± 0.063
9 | TTTTTCAATA | 1.01 ± 0.023
10 | AAGCGGTTTT | 1 ± 0.019
11 | AATAACTCCG | 1.224 ± 0.008
12 | TCGGTGTGCT | 1.06 ± 0.064
13 | GCGGGGGAAT | 1.05 ± 0.071
14 | GATTGCAAGG | 1.02 ± 0.02
15 | AACGAGGCAG | 1.21 ± 0.038
16 | TAGGTTTCTT | 1.01 ± 0.031
17 | ATAATCATTT | 1.02 ± 0.021
18 | ACTATGACGT | 1.04 ± 0.017
19 | CCCAAAGGGG | 1.04 ± 0.04
20 | TCTGAGAGGA | 0.972 ± 0.032
21 | AGGATAGCAA | 1.3 ± 0.023
22 | TTTCCCGACG | 1.12 ± 0.11
23 | CAGGAGGAGA | 1.025 ± 0.01
24 | TTCTGGTAGG | 1 ± 0.025
25 | TGTTAGCCTT | 1.04 ± 0.017

Row | Sequence | switch fluorescence ratio
26 | GTTTTGGTTA | 1.01 ± 0.014
27 | TGGATGGAGA | 1.006 ± 0.008
28 | AACCTCTATT | 1.03 ± 0.015
29 | GTGGGAGGTG | 1 ± 0.046
30 | ATGTATAGGC | 0.962 ± 0.06
31 | TACAGGTTTC | 1 ± 0.023
32 | GAATTTAGTC | 1.06 ± 0.077
33 | TTAGGGAAGT | 0.991 ± 0.031
34 | CAAGCAGGCA | 0.9935 ± 0.0067
35 | ATTTACCAGG | 1.18 ± 0.26
36 | GCACCTATAT | 1.04 ± 0.039
37 | ATGGTATAAC | 1.01 ± 0.015
38 | TGCATGTCCT | 1.029 ± 0.0088
39 | GGTTATGCTG | 1.03 ± 0.1
40 | TGAGGATACA | 1.016 ± 0.0029
41 | ATATTGAGAT | 0.998 ± 0.037
42 | GTTATTGTTC | 0.975 ± 0.016
43 | CGCTGGGTAC | 2.24 ± 0.28
44 | GAGAGAATTT | 1 ± 0.02
45 | TTACTCGACG | 1.06 ± 0.022
46 | CCAGGGTTGG | 1.04 ± 0.048
47 | GAACTGCATA | 1.09 ± 0.085
48 | TGTTTAAGCG | 0.958 ± 0.085
49 | GAATAAGATC | 1.02 ± 0.042
50 | GGCTTAAGTA | 0.9833 ± 0.0084

Row | Sequence | switch fluorescence ratio
51 | TCAGACAGCG | 1.03 ± 0.053
52 | TTAAGAAGCG | 1.01 ± 0.06
53 | TATTTTACGT | 1.01 ± 0.013
54 | TAAGTCATGG | 0.9922 ± 0.0078
55 | TCGTGCTGCG | 1.0004 ± 0.00051
56 | ATGTAGTGCA | 0.995 ± 0.034
57 | GTTGGACCAA | 1.021 ± 0.0027
58 | CTCCTTTTTC | 0.976 ± 0.057
59 | CACCACGTGG | 1.01 ± 0.018
60 | GGCGAGTTT | 1 ± 0.021
61 | AAAAAGGATA | 0.9884 ± 0.0013
62 | TAGGGGTGGC | 0.956 ± 0.099
63 | TTTAGGAGTT | 0.996 ± 0.019
64 | AGAGCATGAT | 1.03 ± 0.024
65 | TAATTAGAGG | 1.01 ± 0.027
66 | CTTTTGGATT | 0.998 ± 0.022
67 | ACTCAGGAGT | 1.011 ± 0.0031
68 | TTTCTAAGAA | 1.01 ± 0.013
69 | GCGGGCCGTC | 1.03 ± 0.023
70 | CATGCGGTTG | 0.978 ± 0.013
71 | GTATTTTTTT | 0.967 ± 0.013
72 | AAGGAGGATG | 0.995 ± 0.042
73 | TAGTAAGGGA | 1 ± 0.031
74 | GATTTGTTGG | 0.9815 ± 0.0055
75 | TTGCCACGGA | 1.07 ± 0.051

Row | Sequence | switch fluorescence ratio
76 | AAAACACGCT | 1.18 ± 0.2
77 | GCTCTGTTGG | 1.01 ± 0.048
78 | ACATGGGCT | 1.003 ± 0.0088
79 | TTGTAGTTTT | 1.01 ± 0.038
80 | GCATGAGAGG | 0.987 ± 0.021
81 | TAGGTATATT | 0.97 ± 0.019
82 | CCCGGGGTCT | 1.02 ± 0.026
83 | GAGCAGCTCG | 0.9995 ± 0.0059
84 | TACGGGCGTC | 1 ± 0.028
85 | ATTTTTCGAT | 1 ± 0.026
86 | AAATGGTTGG | 0.995 ± 0.025
87 | TTTAGGTAAT | 1.016 ± 0.0074
88 | TACGTGTAGC | 1.01 ± 0.011
89 | ATGTGGTTAG | 0.994 ± 0.03
90 | AATGGAGAAC | 1.01 ± 0.028
91 | CAGCTGGGGG | 1 ± 0.024
92 | GTAGGATTTC | 1.01 ± 0.027
93 | GGGTATCTCG | 0.9938 ± 0.0063
94 | AGATATTCGG | 0.984 ± 0.07
95 | GGGTAAGCTT | 0.996 ± 0.016
96 | CCATTATATC | 1.01 ± 0.047
97 | TGGTAAAATT | 1.031 ± 0.01
98 | GGGGTCCGTG | 0.993 ± 0.067
99 | GAGATATTGG | 0.99 ± 0.013
100 | TTAGAATACG | 1 ± 0.045

Row | Sequence | switch fluorescence ratio
101 | GGGAGTTGCT | 0.986 ± 0.039
102 | TTGAGTTCGG | 0.986 ± 0.015
103 | ATTTATACGG | 1.02 ± 0.015
104 | GTTGTAGACA | 0.9847 ± 0.0048
105 | ATAGTGAGTT | 1 ± 0.016
106 | ACGGATTAGG | 1.01 ± 0.021
107 | TAAAACCGGT | 1.02 ± 0.018
108 | GTGCCTTAGG | 0.99797 ± 0.00039
109 | CATTTGGCGT | 0.972 ± 0.029
110 | ACGCTCCTAC | 2.64 ± 0.028
111 | GAGCATTTTT | 0.969 ± 0.029
112 | GTATTGTGGT | 0.967 ± 0.017
113 | TTAGGTTTTG | 1.02 ± 0.061
114 | CCGCGACGGG | 1.69 ± 0.48
115 | GATTTTGGAT | 0.994 ± 0.012
116 | AGCAGAGGGT | 0.994 ± 0.04
117 | CCATTGACGG | 1.04 ± 0.02
118 | AAAACCAGTA | 1.01 ± 0.075
119 | CCTCGCTGAG | 3.48 ± 0.98
120 | TACGCGTGGG | 1.004 ± 0.0084
121 | GGTTGTAGTT | 0.963 ± 0.016
122 | TTCAGAAGGT | 1.01 ± 0.051
123 | AAAGGGTAAC | 0.988 ± 0.036
124 | ATAGTAGGTA | 0.99137 ± 0.00055
125 | GGGGTATTAT | 1 ± 0.028

Row | Sequence | switch fluorescence ratio
126 | TAACATGAAG | 1.004 ± 0.0073
127 | CAGCTGGGGA | 1.01 ± 0.055
128 | TCGACTCACT | 1.2 ± 0.013
129 | GGGCCAGTGA | 1.03 ± 0.039
130 | GGTTGTTCCG | 0.9973 ± 0.0073
131 | GATAACATGT | 1.02 ± 0.029
132 | AAGTAACGTC | 1.041 ± 0.01
133 | GTGGGAGGGT | 0.984 ± 0.041
134 | CATCGTGTTA | 1.01 ± 0.022
135 | TTAGGCTTT | 0.9374 ± 0.0049
136 | TTCCGGGGCG | 0.991 ± 0.038
137 | GGGGTCAGTC | 0.9933 ± 0.0099
138 | GCAGAGGGGA | 0.981 ± 0.039
139 | ACGGTCTGGC | 1.02 ± 0.035
140 | TGGTTGGTCA | 0.992 ± 0.01
141 | TAGGGTTCAA | 0.989 ± 0.02
142 | CAATTACTTT | 1.06 ± 0.026
143 | GGTTTGATGT | 0.975 ± 0.023
144 | AATGTAGTTG | 1.02 ± 0.027
145 | ATGGGTTTAA | 0.961 ± 0.063
146 | ACGTTGTGAG | 0.969 ± 0.037
147 | GTTTCGCGAC | 1.19 ± 0.026
148 | CGCTAAAGGG | 1.042 ± 0.0042
149 | GAGTGACGGA | 1 ± 0.054
150 | CTCGACATTT | 1.02 ± 0.027

Row | Sequence | switch fluorescence ratio
151 | GCTTGGTCGT | 1.03 ± 0.024
152 | GACACTGCCC | 1.13 ± 0.048
153 | GACCCGCTAA | 4.18 ± 0.3
154 | TGGGGTGCAC | 0.957 ± 0.024
155 | GTTACTTGTA | 0.978 ± 0.025
156 | AATCTGGACG | 1.06 ± 0.048
157 | GAACTCGGGG | 1.019 ± 0.0051
158 | ACAGCATTTT | 1.03 ± 0.0072
159 | ATACCTGGTC | 1.053 ± 0.0017
160 | GGGACCCAAG | 1.02 ± 0.046
161 | GATGGCCATT | 1.02 ± 0.018
162 | TAATTCAATG | 0.997 ± 0.066
163 | TAACTCTTTT | 0.978 ± 0.044
164 | TGTTTCGACG | 0.986 ± 0.038
165 | CAGTCATTCG | 0.99 ± 0.016
166 | ACAGTTCGGG | 0.9653 ± 0.0051
167 | TTACCAGCTT | 1.02 ± 0.063
168 | CCATTGTAGC | 1.03 ± 0.024
169 | ATTGGGCTGT | 0.993 ± 0.016
170 | TCTTGTTAT | 1.01 ± 0.051
171 | ACTTGTAGTA | 1.01 ± 0.012
172 | TAGTGGGGTG | 0.969 ± 0.01
173 | TTGTAACGGA | 1.01 ± 0.039
174 | CTAGCTTAGC | 0.9902 ± 0.0056
175 | TCCATTCCGA | 1.17 ± 0.13

Row | Sequence | switch fluorescence ratio
176 | GAACATGATA | 1.02 ± 0.028
177 | TATTTTCTGT | 0.997 ± 0.036
178 | ATGTTGACCG | 1.03 ± 0.044
179 | TAAATTTTGT | 1.02 ± 0.039
180 | TCGAGGACTA | 0.999 ± 0.032
181 | ATCGACGTTT | 1.03 ± 0.055
182 | TACCCTTGGG | 0.9937 ± 0.0072
183 | CAATATGTGT | 0.986 ± 0.036
184 | GATTTATTCG | 0.983 ± 0.014
185 | TTGGTACCGC | 1 ± 0.048
186 | TTGTCCGGGG | 1.006 ± 0.0058
187 | ACTGTGTACC | 1.04 ± 0.015
188 | ACATCTTTTA | 1.03 ± 0.038
189 | TGGGTCCGTT | 1.01 ± 0.036
190 | GGGAACAGCA | 1.027 ± 0.0047
191 | TTAATTAACG | 0.995 ± 0.023
192 | TATTACCTTA | 1.03 ± 0.044
193 | CTCAGTAGGG | 0.975 ± 0.024
194 | AGCGATGTCG | 0.9885 ± 0.0014
195 | ATCTGTGATA | 0.977 ± 0.048
196 | CGAATCAAAC | 1.52 ± 0.032
197 | AGAGTGGCAG | 1.01 ± 0.021
198 | TCAACGCCCC | 1.28 ± 0.055
199 | GCATCCTGGA | 0.969 ± 0.058
200 | GTTGATTTGG | 0.981 ± 0.015
